Common to all, as to assay: flow cytometry on cells
In general terms: Flow cytometry measures light scatter and fluorescence of single cells or particles in a stream.

The target in experiment [1] is T1, Toll-like receptor 4 (mouse (endogenous in TG-elicited …, UniProt Q9QUK6 26-835)).
T1 sequence (looked up): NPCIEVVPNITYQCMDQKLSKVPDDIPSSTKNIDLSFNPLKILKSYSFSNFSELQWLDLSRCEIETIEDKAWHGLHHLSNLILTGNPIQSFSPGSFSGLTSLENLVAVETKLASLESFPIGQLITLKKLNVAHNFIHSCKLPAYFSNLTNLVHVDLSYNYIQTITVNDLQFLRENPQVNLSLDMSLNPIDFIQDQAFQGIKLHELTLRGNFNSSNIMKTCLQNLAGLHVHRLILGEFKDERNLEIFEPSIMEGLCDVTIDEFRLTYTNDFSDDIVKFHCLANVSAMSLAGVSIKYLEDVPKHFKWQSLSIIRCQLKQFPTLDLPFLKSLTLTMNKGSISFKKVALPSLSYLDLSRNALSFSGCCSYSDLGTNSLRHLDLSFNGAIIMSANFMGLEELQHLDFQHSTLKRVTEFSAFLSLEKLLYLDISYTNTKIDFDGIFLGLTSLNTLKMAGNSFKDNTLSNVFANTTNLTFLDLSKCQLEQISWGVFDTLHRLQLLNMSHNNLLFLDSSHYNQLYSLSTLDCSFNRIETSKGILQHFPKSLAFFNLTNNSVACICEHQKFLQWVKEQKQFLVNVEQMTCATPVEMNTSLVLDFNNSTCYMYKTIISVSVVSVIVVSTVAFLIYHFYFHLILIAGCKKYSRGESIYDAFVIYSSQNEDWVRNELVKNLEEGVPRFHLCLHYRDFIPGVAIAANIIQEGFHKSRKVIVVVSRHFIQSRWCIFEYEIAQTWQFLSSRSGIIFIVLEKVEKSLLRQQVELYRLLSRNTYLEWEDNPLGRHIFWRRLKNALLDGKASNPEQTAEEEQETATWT

Experiment [2] addresses T1, Toll-like receptor 4. This is another data set of the same source.
Experiment [3] addresses T1, Toll-like receptor 4. This is another data set of the same source.

Where two headings read alike, the source gives them in different places.

The values that follow come from article PMC2955897 (Journal of immunology (Baltimore, Md. : 1950), 2009).

What is called Ki is the equilibrium dissociation constant of an inhibitor or competing ligand from its target. As a reminder, the Kd is a measure of binding affinity in units of concentration. A high value points to weaker binding.

B1: Peroxiredoxin 1 (recombinant human Prx1, unlabeled) (natural protein, UniProt Q06830 1-199, looked up)
chain: MSSGNAKIGHPAPNFKATAVMPDGQFKDISLSDYKGKYVVFFFYPLDFTFVCPTEIIAFSDRAEEFKKLNCQVIGASVDSHFCHLAWVNTPKKQGGLGPMNIPLVSDPKRTIAQDYGVLKADEGISFRGLFIIDDKGILRQITVNDLPVGRSVDETLRLVQAFQFTDKHGEVCPAGWKPGSDTIKPDVQKSKEYFSKQK
Take B1: affinity with Toll-like receptor 4 [1] was put at a Ki of 4100 µM.

B2: FITC-conjugated Prx1 (recombinant human) (natural protein, UniProt Q06830 1-199, looked up)
chain: MSSGNAKIGHPAPNFKATAVMPDGQFKDISLSDYKGKYVVFFFYPLDFTFVCPTEIIAFSDRAEEFKKLNCQVIGASVDSHFCHLAWVNTPKKQGGLGPMNIPLVSDPKRTIAQDYGVLKADEGISFRGLFIIDDKGILRQITVNDLPVGRSVDETLRLVQAFQFTDKHGEVCPAGWKPGSDTIKPDVQKSKEYFSKQK
modifications: FITC conjugated (FITC conjugation kit, Sigma; residues not stated)
As for B2, the Kd in the experiment with Toll-like receptor 4 [2] is 1600 µM; in the experiment with Toll-like receptor 4 [3], about 1300 µM.

B3: FITC-conjugated Prx1C52S (recombinant human) (natural protein, UniProt Q06830 1-199, looked up)
chain: MSSGNAKIGHPAPNFKATAVMPDGQFKDISLSDYKGKYVVFFFYPLDFTFVSPTEIIAFSDRAEEFKKLNCQVIGASVDSHFCHLAWVNTPKKQGGLGPMNIPLVSDPKRTIAQDYGVLKADEGISFRGLFIIDDKGILRQITVNDLPVGRSVDETLRLVQAFQFTDKHGEVCPAGWKPGSDTIKPDVQKSKEYFSKQK
modifications: FITC conjugated (FITC conjugation kit, Sigma; residues not stated)
Take B3: in the experiment with Toll-like receptor 4 [2], the Kd amounted to 2500 µM.

B4: Prx1C52S (recombinant human, unlabeled) (natural protein, UniProt Q06830 1-199, looked up)
chain: MSSGNAKIGHPAPNFKATAVMPDGQFKDISLSDYKGKYVVFFFYPLDFTFVSPTEIIAFSDRAEEFKKLNCQVIGASVDSHFCHLAWVNTPKKQGGLGPMNIPLVSDPKRTIAQDYGVLKADEGISFRGLFIIDDKGILRQITVNDLPVGRSVDETLRLVQAFQFTDKHGEVCPAGWKPGSDTIKPDVQKSKEYFSKQK
B4 gave a Ki with Toll-like receptor 4 [1] of 5200 µM.
